Measurements reported in patent publication US20030195337A1 (IMMUNEX, published 2003).

B1: ULBP4, full length, expressed on transfected CV-1 cells (ligand)
chain: HSLCFNFTIKSLSRPGQPWCEAQVFLNKNLFLQYNSDNNMVKPLGLLGKKVYATSTWGELTQTLGEVGRDLRMLLCDIKPQIKTSDPSTLQVEMFCQREAERCTGASWQFATNGEKSLLFDAMNMTWTVINHEASKIKETWKKDRGLEKYFRKLSKGDCDHWLREFLGHWEAMPEPTVSPVNASDIHWSSSSLPDRWIILGAFILLVLMGIVLICVWWQNGEWQAGLWPLRTS
notes: Full length cDNA in pDC409, expressed on CV-1 cells; The terminus was not determined for the cell-surface form itself
B2: ULBP3, full length, expressed on transfected CV-1 cells (ligand)
chain: DAHSLWYNFTIIHLPRHGQQWCEVQSQVDQKNFLSYDCGSDKVLSMGHLEEQLYATDAWGKQLEMLREVGQRLRLELADTELEDFTPSGPLTLQVRMSCECEADGYIRGSWQFSFDGRKFLLFDSNNRKWTVVHAGARRMKEKWEKDSGLTTFFKMVSMRDCKSWLRDFLMHRKKRLEPTAPPTMAPG
notes: Full length cDNA in pDC409, expressed on CV-1 cells
B3: murine NKG2D-Fc fusion protein (Fc fusion, UniProt O54709 90-232, looked up)
chain: FKETFQPVLCNKEVPVSSREGYCGPCPNNWICHRNNCYQFFNEEKTWNQSQASCLSQNSSLLKIYSKEEQDFLKLVKSYHWMGLVQIPANGSWQWEDGSSLSYNQLTLVEIPKGSCAVYGSSFKAYTEDCANLNTYICMKRAV
notes: extracellular domain; Soluble protein made in CV-1 cells; not shown: hinge and Fc region of a modified human IgG1 (Fc mutein of Baum et al. 1994)

How the values were obtained:
[1] = molecular target: ULBP4, full length, expressed on transfected CV-1 cells (human) (UniProt Q8TD07); test: flow cytometry; Fc fusion protein on CV-1 cells transfected with full length ULBP; +++ = more than two logs above background
[2] = molecular target: ULBP2, full length, expressed on transfected CV-1 cells (human) (UniProt Q9BZM5); test: as above
[3] = molecular target: ULBP1, full length, expressed on transfected CV-1 cells (human) (UniProt Q9BZM6); test: as above
[4] = molecular target: ULBP3, full length, expressed on transfected CV-1 cells (human) (UniProt Q9BZM4); test: as above
[5] = molecular target: human NK cells (primary, stimulated overnight with recombinant human IL-15) (human); test: flow cytometry; 1 ug protein on about one million IL-15 stimulated human NK cells, labeled anti-human IgG Fc; no protein control = 6
UL16-Fc fusion protein = molecular target: T1, UL16-Fc fusion protein (human cytomegalovirus (HCMV); human, UniProt P16757 27-184; P01857 99-330 = IgG part); test: flow cytometry; Fc fusion protein on CV-1 cells transfected with full length ULBP, PE anti-human IgG Fc
T1 construct: extracellular domain;domain: modified human IgG1 Fc region; Soluble fusion protein prepared as in Cosman et al. 2001

[6] = molecular target: B2; test: as above

T1 sequence (P16757 27-184, tags or fused parts left off): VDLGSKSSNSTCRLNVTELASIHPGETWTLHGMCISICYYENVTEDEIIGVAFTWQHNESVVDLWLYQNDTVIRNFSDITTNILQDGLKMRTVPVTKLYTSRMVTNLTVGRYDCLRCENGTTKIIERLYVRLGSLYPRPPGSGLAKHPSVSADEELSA
Chain of ULBP2, full length, expressed on transfected CV-1 cells (human) (Q9BZM5 26-217 limits assumed): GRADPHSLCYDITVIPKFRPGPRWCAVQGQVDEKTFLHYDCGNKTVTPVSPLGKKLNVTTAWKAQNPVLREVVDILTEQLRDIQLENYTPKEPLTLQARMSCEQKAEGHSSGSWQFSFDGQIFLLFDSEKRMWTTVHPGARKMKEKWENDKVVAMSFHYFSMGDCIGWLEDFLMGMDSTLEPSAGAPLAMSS

human NKG2D-Fc fusion protein (from UniProt P26718 73-216; P01857 99-330)
fluorescence above background (flow cytometry) (logabovebackground) [1]: > 2 | fluorescence above background (flow cytometry) (logabovebackground) [2]: > 2 | fluorescence above background (flow cytometry) (logabovebackground) [3]: > 2 | fluorescence above background (flow cytometry) (logabovebackground) [4]: > 2

ULBP1:Fc fusion protein (from UniProt Q9BZM6 26-216)
Mean fluorescence intensity [5]: 35

B1
binding result (UL16-Fc fusion protein): no binding

B2
binding result (UL16-Fc fusion protein): no binding

B3
binding result [6]: no binding
